Assay [1] has as its target T1, human amylin receptor (calcitonin receptor co-expressed with receptor activity modifying protein, RAMP3) (human, UniProt P30988 25-474; O60896 24-148).
T1 sequence (looked up) 1: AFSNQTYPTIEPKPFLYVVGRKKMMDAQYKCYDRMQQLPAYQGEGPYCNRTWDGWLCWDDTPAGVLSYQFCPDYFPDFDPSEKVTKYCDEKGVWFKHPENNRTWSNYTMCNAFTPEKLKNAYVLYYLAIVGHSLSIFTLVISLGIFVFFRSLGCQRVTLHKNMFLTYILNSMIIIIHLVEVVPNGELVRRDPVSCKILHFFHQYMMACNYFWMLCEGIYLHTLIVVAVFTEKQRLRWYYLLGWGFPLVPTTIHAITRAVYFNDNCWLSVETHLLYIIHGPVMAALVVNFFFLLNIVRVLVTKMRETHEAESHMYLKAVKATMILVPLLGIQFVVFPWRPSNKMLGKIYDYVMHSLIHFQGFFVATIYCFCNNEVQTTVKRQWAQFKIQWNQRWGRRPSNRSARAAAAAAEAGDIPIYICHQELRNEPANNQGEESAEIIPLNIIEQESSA
T1 sequence (looked up) 2: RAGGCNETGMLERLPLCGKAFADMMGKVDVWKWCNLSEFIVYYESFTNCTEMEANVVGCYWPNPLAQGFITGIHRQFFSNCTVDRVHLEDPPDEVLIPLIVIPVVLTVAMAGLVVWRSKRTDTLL
The assay can be described thus: cell-based or functional assay.

The target of assay [2] is T2, human calcitonin receptor (human, UniProt P30988 25-474).
T2 sequence (looked up): T1 sequence (looked up) 1
The assay is described as follows: cell-based or functional assay.

Numbered stars: 1 amine (or outer) side, 2 acyl side, 3 side chain; on linkers, the order of the positions; unused ones are H or OH. Bridge positions count the residues as written; N and C are the ends. Square brackets hold non-standard residues; d marks the D form. Side chains are listed from the residue outwards. Ends that are not written are not given here. * marks the point of attachment. C18 diacid = O=C(O)CCCCCCCCCCCCCCCCC(=O)*; γGlu = O=C(O)[C@H](CCC(=O)[*:2])N[*:1]; Aib = CC(C)(N)C(=O)O

B1: Peptide 110 (SEQ ID NO: 110) (peptide)
peptide: K([γGlu-C18 diacid])KCNTATCATQRLANFLVHSSNNF[Aib]PILPPTNVGSNTY-NH2
modifications: disulfide 3-8; N-terminus assumed
SMILES: CC[C@H](C)[C@H](NC(=O)[C@@H]1CCCN1C(=O)C(C)(C)NC(=O)[C@H](Cc1ccccc1)NC(=O)[C@H](CC(N)=O)NC(=O)[C@H](CC(N)=O)NC(=O)[C@H](CO)NC(=O)[C@H](CO)NC(=O)[C@H](Cc1c[nH]cn1)NC(=O)[C@@H](NC(=O)[C@H](CC(C)C)NC(=O)[C@H](Cc1ccccc1)NC(=O)[C@H](CC(N)=O)NC(=O)[C@H](C)NC(=O)[C@H](CC(C)C)NC(=O)[C@H](CCCNC(=N)N)NC(=O)[C@H](CCC(N)=O)NC(=O)[C@@H](NC(=O)[C@H](C)NC(=O)[C@@H]1CSSC[C@H](NC(=O)[C@H](CCCCN)NC(=O)[C@@H](N)CCCCNC(=O)CC[C@H](NC(=O)CCCCCCCCCCCCCCCCC(=O)O)C(=O)O)C(=O)N[C@@H](CC(N)=O)C(=O)N[C@@H]([C@@H](C)O)C(=O)N[C@@H](C)C(=O)N[C@@H]([C@@H](C)O)C(=O)N1)[C@@H](C)O)C(C)C)C(=O)N[C@@H](CC(C)C)C(=O)N1CCC[C@H]1C(=O)N1CCC[C@H]1C(=O)N[C@H](C(=O)N[C@@H](CC(N)=O)C(=O)N[C@H](C(=O)NCC(=O)N[C@@H](CO)C(=O)N[C@@H](CC(N)=O)C(=O)N[C@H](C(=O)N[C@@H](Cc1ccc(O)cc1)C(N)=O)[C@@H](C)O)C(C)C)[C@@H](C)O
As to B1, the results for the “EC50 (cAMP production)” value in assay [1] and in assay [2] were 0.204 nM and 0.541 nM, respectively. The “Ratio (EC50 hCTR / EC50 hAMYR3)” value in assay [1] amounted to 3.

B2: Peptide 111 (SEQ ID NO: 111) (peptide)
peptide: K([γGlu-C18 diacid])KCNTATCATQRLANFLVHSSNHFGPILPPTNVGSETY-NH2
modifications: disulfide 3-8; N-terminus assumed
SMILES: CC[C@H](C)[C@H](NC(=O)[C@@H]1CCCN1C(=O)CNC(=O)[C@H](Cc1ccccc1)NC(=O)[C@H](Cc1c[nH]cn1)NC(=O)[C@H](CC(N)=O)NC(=O)[C@H](CO)NC(=O)[C@H](CO)NC(=O)[C@H](Cc1c[nH]cn1)NC(=O)[C@@H](NC(=O)[C@H](CC(C)C)NC(=O)[C@H](Cc1ccccc1)NC(=O)[C@H](CC(N)=O)NC(=O)[C@H](C)NC(=O)[C@H](CC(C)C)NC(=O)[C@H](CCCNC(=N)N)NC(=O)[C@H](CCC(N)=O)NC(=O)[C@@H](NC(=O)[C@H](C)NC(=O)[C@@H]1CSSC[C@H](NC(=O)[C@H](CCCCN)NC(=O)[C@@H](N)CCCCNC(=O)CC[C@H](NC(=O)CCCCCCCCCCCCCCCCC(=O)O)C(=O)O)C(=O)N[C@@H](CC(N)=O)C(=O)N[C@@H]([C@@H](C)O)C(=O)N[C@@H](C)C(=O)N[C@@H]([C@@H](C)O)C(=O)N1)[C@@H](C)O)C(C)C)C(=O)N[C@@H](CC(C)C)C(=O)N1CCC[C@H]1C(=O)N1CCC[C@H]1C(=O)N[C@H](C(=O)N[C@@H](CC(N)=O)C(=O)N[C@H](C(=O)NCC(=O)N[C@@H](CO)C(=O)N[C@@H](CCC(=O)O)C(=O)N[C@H](C(=O)N[C@@H](Cc1ccc(O)cc1)C(N)=O)[C@@H](C)O)C(C)C)[C@@H](C)O
With B2, in assay [1], the “EC50 (cAMP production)” value amounted to 0.403 nM and the “Ratio (EC50 hCTR / EC50 hAMYR3)” value came out at 5. The “EC50 (cAMP production)” value in assay [2] is 1.88 nM.

These data come from patent US20220204580A1 (AstraZeneca / MedImmune, published 2022).
